B1: H183/L072 VL T31R (antibody, name in Kabat numbering, V domains shown)
VH: QVQLVESGGGLVQPGRSLRLSCAASGFTFSNAWMHWVRQAPGKGLEWVAQIKDKGNAYAAYYAPSVKGRFTISRDDSKNSIYLQMNSLKTEDTAVYYCHYVHYASASTVLPAFGVDAWGQGTTVTVSS
VL: DIVMTQSPLSLPVTPGEPASISCQASQELVHMNRNRYLHWYQQKPGQAPRLLIYKVSNRFPGVPDRFSGSGSGTDFTLKISRVEAEDVGVYYCAQGTSVPFTFGQGTKLEIK
notes: Dual-Ig
B2: H183/L072 VL T92R (antibody, name in Kabat numbering, V domains shown)
VH: QVQLVESGGGLVQPGRSLRLSCAASGFTFSNAWMHWVRQAPGKGLEWVAQIKDKGNAYAAYYAPSVKGRFTISRDDSKNSIYLQMNSLKTEDTAVYYCHYVHYASASTVLPAFGVDAWGQGTTVTVSS
VL: DIVMTQSPLSLPVTPGEPASISCQASQELVHMNRNTYLHWYQQKPGQAPRLLIYKVSNRFPGVPDRFSGSGSGTDFTLKISRVEAEDVGVYYCAQGRSVPFTFGQGTKLEIK
notes: Dual-Ig
B3: H183/L072 VL T92N (antibody, name in Kabat numbering, V domains shown)
VH: QVQLVESGGGLVQPGRSLRLSCAASGFTFSNAWMHWVRQAPGKGLEWVAQIKDKGNAYAAYYAPSVKGRFTISRDDSKNSIYLQMNSLKTEDTAVYYCHYVHYASASTVLPAFGVDAWGQGTTVTVSS
VL: DIVMTQSPLSLPVTPGEPASISCQASQELVHMNRNTYLHWYQQKPGQAPRLLIYKVSNRFPGVPDRFSGSGSGTDFTLKISRVEAEDVGVYYCAQGNSVPFTFGQGTKLEIK
notes: Dual-Ig
B4: H183/L072 VL T31S (antibody, name in Kabat numbering, V domains shown)
VH: QVQLVESGGGLVQPGRSLRLSCAASGFTFSNAWMHWVRQAPGKGLEWVAQIKDKGNAYAAYYAPSVKGRFTISRDDSKNSIYLQMNSLKTEDTAVYYCHYVHYASASTVLPAFGVDAWGQGTTVTVSS
VL: DIVMTQSPLSLPVTPGEPASISCQASQELVHMNRNSYLHWYQQKPGQAPRLLIYKVSNRFPGVPDRFSGSGSGTDFTLKISRVEAEDVGVYYCAQGTSVPFTFGQGTKLEIK
notes: Dual-Ig
B5: H183/L072 VL T92P (antibody, name in Kabat numbering, V domains shown)
VH: QVQLVESGGGLVQPGRSLRLSCAASGFTFSNAWMHWVRQAPGKGLEWVAQIKDKGNAYAAYYAPSVKGRFTISRDDSKNSIYLQMNSLKTEDTAVYYCHYVHYASASTVLPAFGVDAWGQGTTVTVSS
VL: DIVMTQSPLSLPVTPGEPASISCQASQELVHMNRNTYLHWYQQKPGQAPRLLIYKVSNRFPGVPDRFSGSGSGTDFTLKISRVEAEDVGVYYCAQGPSVPFTFGQGTKLEIK
notes: Dual-Ig
B6: H183/L072 VL T92L (antibody, name in Kabat numbering, V domains shown)
VH: QVQLVESGGGLVQPGRSLRLSCAASGFTFSNAWMHWVRQAPGKGLEWVAQIKDKGNAYAAYYAPSVKGRFTISRDDSKNSIYLQMNSLKTEDTAVYYCHYVHYASASTVLPAFGVDAWGQGTTVTVSS
VL: DIVMTQSPLSLPVTPGEPASISCQASQELVHMNRNTYLHWYQQKPGQAPRLLIYKVSNRFPGVPDRFSGSGSGTDFTLKISRVEAEDVGVYYCAQGLSVPFTFGQGTKLEIK
notes: Dual-Ig
B7: H183/L072 VL T92M (antibody, name in Kabat numbering, V domains shown)
VH: QVQLVESGGGLVQPGRSLRLSCAASGFTFSNAWMHWVRQAPGKGLEWVAQIKDKGNAYAAYYAPSVKGRFTISRDDSKNSIYLQMNSLKTEDTAVYYCHYVHYASASTVLPAFGVDAWGQGTTVTVSS
VL: DIVMTQSPLSLPVTPGEPASISCQASQELVHMNRNTYLHWYQQKPGQAPRLLIYKVSNRFPGVPDRFSGSGSGTDFTLKISRVEAEDVGVYYCAQGMSVPFTFGQGTKLEIK
notes: Dual-Ig
B8: H183/L072 VL T92G (antibody, name in Kabat numbering, V domains shown)
VH: QVQLVESGGGLVQPGRSLRLSCAASGFTFSNAWMHWVRQAPGKGLEWVAQIKDKGNAYAAYYAPSVKGRFTISRDDSKNSIYLQMNSLKTEDTAVYYCHYVHYASASTVLPAFGVDAWGQGTTVTVSS
VL: DIVMTQSPLSLPVTPGEPASISCQASQELVHMNRNTYLHWYQQKPGQAPRLLIYKVSNRFPGVPDRFSGSGSGTDFTLKISRVEAEDVGVYYCAQGGSVPFTFGQGTKLEIK
notes: Dual-Ig
B9: H183/L072 VL T92S (antibody, name in Kabat numbering, V domains shown)
VH: QVQLVESGGGLVQPGRSLRLSCAASGFTFSNAWMHWVRQAPGKGLEWVAQIKDKGNAYAAYYAPSVKGRFTISRDDSKNSIYLQMNSLKTEDTAVYYCHYVHYASASTVLPAFGVDAWGQGTTVTVSS
VL: DIVMTQSPLSLPVTPGEPASISCQASQELVHMNRNTYLHWYQQKPGQAPRLLIYKVSNRFPGVPDRFSGSGSGTDFTLKISRVEAEDVGVYYCAQGSSVPFTFGQGTKLEIK
notes: Dual-Ig
B10: H183/L072 VL T92V (antibody, name in Kabat numbering, V domains shown)
VH: QVQLVESGGGLVQPGRSLRLSCAASGFTFSNAWMHWVRQAPGKGLEWVAQIKDKGNAYAAYYAPSVKGRFTISRDDSKNSIYLQMNSLKTEDTAVYYCHYVHYASASTVLPAFGVDAWGQGTTVTVSS
VL: DIVMTQSPLSLPVTPGEPASISCQASQELVHMNRNTYLHWYQQKPGQAPRLLIYKVSNRFPGVPDRFSGSGSGTDFTLKISRVEAEDVGVYYCAQGVSVPFTFGQGTKLEIK
notes: Dual-Ig
B11: H183/L072 VL T92E (antibody, name in Kabat numbering, V domains shown)
VH: QVQLVESGGGLVQPGRSLRLSCAASGFTFSNAWMHWVRQAPGKGLEWVAQIKDKGNAYAAYYAPSVKGRFTISRDDSKNSIYLQMNSLKTEDTAVYYCHYVHYASASTVLPAFGVDAWGQGTTVTVSS
VL: DIVMTQSPLSLPVTPGEPASISCQASQELVHMNRNTYLHWYQQKPGQAPRLLIYKVSNRFPGVPDRFSGSGSGTDFTLKISRVEAEDVGVYYCAQGESVPFTFGQGTKLEIK
notes: Dual-Ig
B12: H183/L072 VL T92H (antibody, name in Kabat numbering, V domains shown)
VH: QVQLVESGGGLVQPGRSLRLSCAASGFTFSNAWMHWVRQAPGKGLEWVAQIKDKGNAYAAYYAPSVKGRFTISRDDSKNSIYLQMNSLKTEDTAVYYCHYVHYASASTVLPAFGVDAWGQGTTVTVSS
VL: DIVMTQSPLSLPVTPGEPASISCQASQELVHMNRNTYLHWYQQKPGQAPRLLIYKVSNRFPGVPDRFSGSGSGTDFTLKISRVEAEDVGVYYCAQGHSVPFTFGQGTKLEIK
notes: Dual-Ig
B13: H183/L072 VL T92Q (antibody, name in Kabat numbering, V domains shown)
VH: QVQLVESGGGLVQPGRSLRLSCAASGFTFSNAWMHWVRQAPGKGLEWVAQIKDKGNAYAAYYAPSVKGRFTISRDDSKNSIYLQMNSLKTEDTAVYYCHYVHYASASTVLPAFGVDAWGQGTTVTVSS
VL: DIVMTQSPLSLPVTPGEPASISCQASQELVHMNRNTYLHWYQQKPGQAPRLLIYKVSNRFPGVPDRFSGSGSGTDFTLKISRVEAEDVGVYYCAQGQSVPFTFGQGTKLEIK
notes: Dual-Ig
B14: H183/L072 VL T31V (antibody, name in Kabat numbering, V domains shown)
VH: QVQLVESGGGLVQPGRSLRLSCAASGFTFSNAWMHWVRQAPGKGLEWVAQIKDKGNAYAAYYAPSVKGRFTISRDDSKNSIYLQMNSLKTEDTAVYYCHYVHYASASTVLPAFGVDAWGQGTTVTVSS
VL: DIVMTQSPLSLPVTPGEPASISCQASQELVHMNRNVYLHWYQQKPGQAPRLLIYKVSNRFPGVPDRFSGSGSGTDFTLKISRVEAEDVGVYYCAQGTSVPFTFGQGTKLEIK
notes: Dual-Ig
B15: H183/L072 VL T31Y (antibody, name in Kabat numbering, V domains shown)
VH: QVQLVESGGGLVQPGRSLRLSCAASGFTFSNAWMHWVRQAPGKGLEWVAQIKDKGNAYAAYYAPSVKGRFTISRDDSKNSIYLQMNSLKTEDTAVYYCHYVHYASASTVLPAFGVDAWGQGTTVTVSS
VL: DIVMTQSPLSLPVTPGEPASISCQASQELVHMNRNYYLHWYQQKPGQAPRLLIYKVSNRFPGVPDRFSGSGSGTDFTLKISRVEAEDVGVYYCAQGTSVPFTFGQGTKLEIK
notes: Dual-Ig
B16: H183/L072 VL T31W (antibody, name in Kabat numbering, V domains shown)
VH: QVQLVESGGGLVQPGRSLRLSCAASGFTFSNAWMHWVRQAPGKGLEWVAQIKDKGNAYAAYYAPSVKGRFTISRDDSKNSIYLQMNSLKTEDTAVYYCHYVHYASASTVLPAFGVDAWGQGTTVTVSS
VL: DIVMTQSPLSLPVTPGEPASISCQASQELVHMNRNWYLHWYQQKPGQAPRLLIYKVSNRFPGVPDRFSGSGSGTDFTLKISRVEAEDVGVYYCAQGTSVPFTFGQGTKLEIK
notes: Dual-Ig
B17: H183/L072 VL T92D (antibody, name in Kabat numbering, V domains shown)
VH: QVQLVESGGGLVQPGRSLRLSCAASGFTFSNAWMHWVRQAPGKGLEWVAQIKDKGNAYAAYYAPSVKGRFTISRDDSKNSIYLQMNSLKTEDTAVYYCHYVHYASASTVLPAFGVDAWGQGTTVTVSS
VL: DIVMTQSPLSLPVTPGEPASISCQASQELVHMNRNTYLHWYQQKPGQAPRLLIYKVSNRFPGVPDRFSGSGSGTDFTLKISRVEAEDVGVYYCAQGDSVPFTFGQGTKLEIK
notes: Dual-Ig
B18: H183/L072 VL T92I (antibody, name in Kabat numbering, V domains shown)
VH: QVQLVESGGGLVQPGRSLRLSCAASGFTFSNAWMHWVRQAPGKGLEWVAQIKDKGNAYAAYYAPSVKGRFTISRDDSKNSIYLQMNSLKTEDTAVYYCHYVHYASASTVLPAFGVDAWGQGTTVTVSS
VL: DIVMTQSPLSLPVTPGEPASISCQASQELVHMNRNTYLHWYQQKPGQAPRLLIYKVSNRFPGVPDRFSGSGSGTDFTLKISRVEAEDVGVYYCAQGISVPFTFGQGTKLEIK
notes: Dual-Ig
B19: H183/L072 VL T92A (antibody, name in Kabat numbering, V domains shown)
VH: QVQLVESGGGLVQPGRSLRLSCAASGFTFSNAWMHWVRQAPGKGLEWVAQIKDKGNAYAAYYAPSVKGRFTISRDDSKNSIYLQMNSLKTEDTAVYYCHYVHYASASTVLPAFGVDAWGQGTTVTVSS
VL: DIVMTQSPLSLPVTPGEPASISCQASQELVHMNRNTYLHWYQQKPGQAPRLLIYKVSNRFPGVPDRFSGSGSGTDFTLKISRVEAEDVGVYYCAQGASVPFTFGQGTKLEIK
notes: Dual-Ig
B20: H183/L072 VL T92F (antibody, name in Kabat numbering, V domains shown)
VH: QVQLVESGGGLVQPGRSLRLSCAASGFTFSNAWMHWVRQAPGKGLEWVAQIKDKGNAYAAYYAPSVKGRFTISRDDSKNSIYLQMNSLKTEDTAVYYCHYVHYASASTVLPAFGVDAWGQGTTVTVSS
VL: DIVMTQSPLSLPVTPGEPASISCQASQELVHMNRNTYLHWYQQKPGQAPRLLIYKVSNRFPGVPDRFSGSGSGTDFTLKISRVEAEDVGVYYCAQGFSVPFTFGQGTKLEIK
notes: Dual-Ig
B21: H183/L072 VL T92K (antibody, name in Kabat numbering, V domains shown)
VH: QVQLVESGGGLVQPGRSLRLSCAASGFTFSNAWMHWVRQAPGKGLEWVAQIKDKGNAYAAYYAPSVKGRFTISRDDSKNSIYLQMNSLKTEDTAVYYCHYVHYASASTVLPAFGVDAWGQGTTVTVSS
VL: DIVMTQSPLSLPVTPGEPASISCQASQELVHMNRNTYLHWYQQKPGQAPRLLIYKVSNRFPGVPDRFSGSGSGTDFTLKISRVEAEDVGVYYCAQGKSVPFTFGQGTKLEIK
notes: Dual-Ig

target: T1, Human CD137 ECD (human); assay: Biacore SPR, vs parent H183/L072
T1 construct: entry includes C-terminal His-tag and biotin acceptor peptide; also called human CD137 extracellular domain; 4-1BB
T1 sequence (chain, as listed by the source limits assumed): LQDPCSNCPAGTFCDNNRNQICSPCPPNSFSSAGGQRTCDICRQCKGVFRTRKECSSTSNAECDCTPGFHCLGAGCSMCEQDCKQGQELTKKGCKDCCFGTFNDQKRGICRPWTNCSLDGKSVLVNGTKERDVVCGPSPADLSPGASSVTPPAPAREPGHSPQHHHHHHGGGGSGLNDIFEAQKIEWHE

Row | Binder | fold change of affinity
1 | B1 | 0.4 fold
2 | B2 | 0 fold
3 | B3 | 0 fold
4 | B4 | 0.4 fold
5 | B5 | 0 fold
6 | B6 | 0.2 fold
7 | B7 | 0.4 fold
8 | B8 | 0.4 fold
9 | B9 | 0 fold
10 | B10 | 0.3 fold
11 | B11 | 0 fold
12 | B12 | 0 fold
13 | B13 | 0 fold
14 | B14 | 1 fold
15 | B15 | 0.1 fold
16 | B16 | 0.1 fold
17 | B17 | 0 fold
18 | B18 | 0.1 fold
19 | B19 | 0.5 fold
20 | B20 | 0 fold
21 | B21 | 0 fold

From patent US20210388087A1 (Chugai, published 2021)
